Results taken from paper PMC12631311, “Molecular Insights into IAHSP: Influence of the R1611W Mutation on the VPS9 Domain of Alsin” (ACS Omega, 2025).
Values joined by “and” are separate entries in the source; they are usually repeats but may differ in a detail not shown here. Equal entries are not always repeated.

Target: the molecule itself
Experiment: SEC; Superdex 200 Increase 10/300 GL, 50 mM potassium phosphate pH 8.0, 150 mM NaCl, 0.5 mL/min, room temperature; 310 ug VPS9 WT or 270 ug VPS9 R1611W injected; apparent molecular weights from column calibration

Protein	stoichiometry N
human alsin VPS9 WT (C1551S/C1558S/C1647S) (domain or fragment, UniProt Q96Q42 1513-1657, looked up, alsin, human, VPS9 domain, residues 1513-1657 of UniProt Q96Q42, with three Cys to Ser changes in the construct called WT; Cloned in pET28b between NdeI and EcoRI; No cleavage of the tag is described; The N-terminal position is read from the forward primer (thrombin site before the ATG); The printed monomer mass of 16.6 kDa fits the domain without the tag; also called wild-type VPS9 domain) KQPDIALLGFLGVQRKFWPATLSILGESKKVLPTTKDASFASAVESLQQISTTFTPSDKLKVIQQTFEEISQSVLASLHEDFLWSMDDLFPVFLYVVLRARIRNLGSEVHLIEDLMDPYLQHGEQGIMFTTLKASYYQIQREKLN	4
human alsin VPS9 R1611W mutant (domain or fragment, UniProt Q96Q42 1513-1657, looked up, alsin, human, VPS9 domain, residues 1513-1657 of UniProt Q96Q42; The pathological R1611W mutation was inserted by site-directed mutagenesis into the VPS9 WT (C1551S/C1558S/C1647S) construct; Same construct and tag as m1 with R1611W added; also called VPS R1611W) KQPDIALLGFLGVQRKFWPATLSILGESKKVLPTTKDASFASAVESLQQISTTFTPSDKLKVIQQTFEEISQSVLASLHEDFLWSMDDLFPVFLYVVLWARIRNLGSEVHLIEDLMDPYLQHGEQGIMFTTLKASYYQIQREKLN	4 and 6
